19 molecules from patent US20140256912A1, “Stabilized Variant MAML Peptides and Uses Thereof” (PRESIDENT AND FELLOWS OF HARVARD COLLEGE, priority 2011, published 2014) can be followed below.

Bridge positions count the residues as written; N and C are the ends. Square brackets hold non-standard residues; d marks the D form. Ends that are not written are not given here. S5 = C=CCCC[C@](C)(N)C(=O)O; βAla = NCCC(=O)O

In this assay the target is GST-RAMANK1-CSL complex (human) (UniProt P46531). As to the kind of experiment: ALPHAscreen NTC competition: peptide titrated against Bio-sdnMAML1 binding to GST-RAMANK1-CSL; IC50 with 95% CI.

B1: SAHM1-48 (peptide)
peptide: Ac-W[βAla]ERWRRRL[S5]YVR[S5]HHST
modifications: staple 10-14
The term IC50 denotes the midpoint of a concentration-inhibition curve. For the molecule B1, the IC50 is 670 nM.

B2: SAHM1-76 (peptide)
peptide: Ac-W[βAla]ERWRRRL[S5]YCR[S5]HHSTCEARYEAVSPERL
modifications: staple 10-14; cysteine pairing not given here
B2 returned an IC50 of 270 nM.

B3: SAHM1-59 (peptide)
peptide: Ac-W[βAla]ERWRRRL[S5]YCR[S5]HHSTCEARY
modifications: staple 10-14; cysteine pairing not given here
B3: the IC50 worked out at 340 nM.

B4: SAHM1-81 (peptide)
peptide: Ac-W[βAla]ERWRRRL[S5]WCR[S5]HHSTCEARYEAVSPERL
modifications: staple 10-14; cysteine pairing not given here
Take B4: the IC50 worked out at 370 nM. The IC50 values of the last two molecules are within 1.5-fold of each other.

B5: SAHM1-24 (stapled peptide of the E21-Y41 scaffold) (peptide)
peptide: Ac-W[βAla]ERLRRRI[S5]LCR[S5]HHSTCEARY
modifications: staple 10-14; cysteine pairing not given here
In turn, B5 had an IC50 of 1120 nM.

B6: SAHM1-26 (peptide)
peptide: Ac-W[βAla]ERWRRRI[S5]FCR[S5]HHSTCEARY
modifications: staple 10-14; cysteine pairing not given here
Turning to B6, the IC50 worked out at 850 nM.

B7: SAHM1-25 (E21-Y41 scaffold, L23W/C30F double mutant) (peptide)
peptide: Ac-W[βAla]ERWRRRI[S5]LFR[S5]HHSTCEARY
modifications: staple 10-14
In turn, B7 had an IC50 of 290 nM.

B8: SAHM1-47 (peptide)
peptide: Ac-W[βAla]ERWRRRL[S5]YCR[S5]HHST
modifications: staple 10-14
For B8, the IC50 was 460 nM.

B9: SAHM1-39 (peptide)
peptide: Ac-W[βAla]ERWRRRL[S5]WFR[S5]HHST
modifications: staple 10-14
Molecule B9 gave an IC50 of 900 nM.

B10: SAHM1-80 (peptide)
peptide: Ac-W[βAla]ERWRRRL[S5]YVR[S5]HHSTCEARYEAVSPERL
modifications: staple 10-14
On to B10, for which the IC50 was found to be 360 nM.

B11: SAHM1-27 (E21-Y41 scaffold, L23W/L29W double mutant) (peptide)
peptide: Ac-W[βAla]ERWRRRI[S5]WCR[S5]HHSTCEARY
modifications: staple 10-14; cysteine pairing not given here
B11 showed an IC50 of 200 nM.

B12: SAHM1-D1 (peptide)
peptide: Ac-W[βAla]RELRREI[S5]LCR[S5]HHST
modifications: staple 10-14
As to B12, the IC50 came to 3700 nM.

B13: SAHM1-56 (E21-T36 scaffold with L23W, L29Y and C30F) (peptide)
peptide: Ac-W[βAla]ERWRRRI[S5]YFR[S5]HHST
modifications: staple 10-14
For the molecule B13, the IC50 worked out at 220 nM.

B14: SAHM5 (peptide)
peptide: Ac-W[βAla]ELER[S5]HTF[S5]LHQR
modifications: staple 7-11
The molecule B14 yielded a half-maximal inhibitory concentration (IC50) of 6500 nM. Against the preceding molecule, the IC50 is about 30-fold higher.

B15: AcW-SAHM1 (stapled MAML1 E21-T36 peptide with N-acetyl tryptophan cap) (peptide)
peptide: Ac-W[βAla]ERLRRRI[S5]LCR[S5]HHST
modifications: staple 10-14
B15 showed an IC50 of 1700 nM.

B16: SAHM1-28 (peptide)
peptide: Ac-W[βAla]ERLRRRI[S5]LCR[S5]HHSTFEARY
modifications: staple 10-14
In turn, B16 registered an IC50 of 560 nM.

B17: SAHM1-22 (peptide)
peptide: Ac-W[βAla]ERWRRRI[S5]FCR[S5]HHST
modifications: staple 10-14
In the case of B17, the IC50 was found to be 690 nM.

B18: SAHM1-38 (peptide)
peptide: Ac-W[βAla]ERWRRRL[S5]WVR[S5]HHST
modifications: staple 10-14
Regarding B18, the IC50 was determined as 540 nM.

B19: SAHM1-55 (peptide)
peptide: Ac-W[βAla]ERWRRRI[S5]YCR[S5]HHST
modifications: staple 10-14
Consider B19, for which the IC50 amounted to 250 nM.
